T1: IL-6/IL-6 R complex with gp130 (Homo sapiens, UniProt P08887)
T1 sequence (P08887 20-468): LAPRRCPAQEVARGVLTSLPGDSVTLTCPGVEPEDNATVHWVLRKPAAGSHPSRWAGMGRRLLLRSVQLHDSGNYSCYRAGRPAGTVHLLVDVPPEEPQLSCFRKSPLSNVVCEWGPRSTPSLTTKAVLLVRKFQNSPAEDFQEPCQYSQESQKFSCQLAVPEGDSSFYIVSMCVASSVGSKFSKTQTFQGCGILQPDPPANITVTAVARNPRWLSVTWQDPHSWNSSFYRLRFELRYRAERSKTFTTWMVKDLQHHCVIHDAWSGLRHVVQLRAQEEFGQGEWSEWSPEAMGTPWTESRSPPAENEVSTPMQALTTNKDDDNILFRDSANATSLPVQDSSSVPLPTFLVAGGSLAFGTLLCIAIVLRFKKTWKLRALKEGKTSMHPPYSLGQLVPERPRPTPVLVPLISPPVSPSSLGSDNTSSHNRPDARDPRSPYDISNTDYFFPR
T1 sequence (P40189 23-918 partner): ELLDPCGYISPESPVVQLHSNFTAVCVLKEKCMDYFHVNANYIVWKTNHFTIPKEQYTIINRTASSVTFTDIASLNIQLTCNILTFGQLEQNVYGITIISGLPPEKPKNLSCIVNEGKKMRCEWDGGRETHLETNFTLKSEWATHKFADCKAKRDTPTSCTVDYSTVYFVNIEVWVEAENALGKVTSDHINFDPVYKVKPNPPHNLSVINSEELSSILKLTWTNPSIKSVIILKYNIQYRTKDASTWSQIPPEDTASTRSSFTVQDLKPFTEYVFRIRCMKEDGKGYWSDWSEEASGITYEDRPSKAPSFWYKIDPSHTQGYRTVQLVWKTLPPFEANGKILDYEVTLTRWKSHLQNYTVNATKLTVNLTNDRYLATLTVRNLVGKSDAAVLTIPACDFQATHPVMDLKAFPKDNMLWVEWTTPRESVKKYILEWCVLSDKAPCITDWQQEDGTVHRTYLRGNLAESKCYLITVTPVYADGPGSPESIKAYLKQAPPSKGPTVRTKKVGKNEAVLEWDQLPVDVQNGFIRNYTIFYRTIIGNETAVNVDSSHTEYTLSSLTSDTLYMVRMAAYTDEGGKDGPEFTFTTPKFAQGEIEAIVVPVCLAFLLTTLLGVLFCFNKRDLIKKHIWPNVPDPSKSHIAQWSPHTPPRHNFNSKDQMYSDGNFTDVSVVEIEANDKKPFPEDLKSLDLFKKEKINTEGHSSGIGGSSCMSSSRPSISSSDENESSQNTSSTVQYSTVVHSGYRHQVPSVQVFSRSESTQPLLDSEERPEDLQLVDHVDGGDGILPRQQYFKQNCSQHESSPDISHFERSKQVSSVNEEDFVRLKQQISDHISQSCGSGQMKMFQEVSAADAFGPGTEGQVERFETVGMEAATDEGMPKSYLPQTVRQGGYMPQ

T2: IL-6R (Homo sapiens, UniProt P08887)
T2 sequence (P08887 20-468): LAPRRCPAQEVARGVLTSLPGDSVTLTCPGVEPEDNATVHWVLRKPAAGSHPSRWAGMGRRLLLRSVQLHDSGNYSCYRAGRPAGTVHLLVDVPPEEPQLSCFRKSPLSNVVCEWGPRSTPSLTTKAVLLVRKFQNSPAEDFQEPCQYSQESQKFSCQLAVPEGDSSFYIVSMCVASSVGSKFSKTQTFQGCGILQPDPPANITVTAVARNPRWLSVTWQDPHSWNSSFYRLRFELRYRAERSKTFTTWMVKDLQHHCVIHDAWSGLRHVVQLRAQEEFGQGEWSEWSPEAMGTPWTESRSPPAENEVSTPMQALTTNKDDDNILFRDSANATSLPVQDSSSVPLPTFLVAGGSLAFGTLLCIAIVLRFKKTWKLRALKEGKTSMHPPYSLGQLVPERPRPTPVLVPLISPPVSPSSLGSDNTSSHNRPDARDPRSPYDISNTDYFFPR


Legend:
[1] = biological target: T1, IL-6/IL-6 R complex with gp130; details: IL-6/IL-6R complex on the membrane with gp130; read-out: Kd (high affinity); cited from earlier work
[2] = biological target: T2, IL-6R; details: IL-6R alone; read-out: Kd (low affinity); cited from earlier work
[3] = tested on: IL-6; assay: IL-6 production by retrovirally transduced wt and XBP-1-/- B cells (ELISA, Northern blot); assay type: cell-based, murine; details: wild type and XBP-1-/- cells
Description: (§1) Assays to measure immunoglobulin or cytokine levels in culture supernatants were performed as described (e.g., Hodge et al., 1996 Immunity. 4:397-405 or Science. 1996 274:1903-5).
(§2) The XBP-1 cDNAs for the unspliced (XBP-1u/s) and the spliced (XBP-1s) forms were PCR-amplified from the total RNA of untreated and tunicamycin treated NIH3T3 cells, respectively, with a primer set (5′-[…]-3′ (SEQ ID NO: 7) and 5′-[…]-3′) (SEQ ID NO: 8). XBP-1u form was generated by a PCR-based mutagenesis from XBP-unspliced/s cDNA so that the two G residues at position 532 and 535 were changed to A without changing amino acid sequences in the XBP-1u open reading frame. Numbers are based on the sequences from gene bank database (NM_013842 [gi:13775155]). These XBP-1 cDNAs were inserted into the GFP-RV retroviral vector by using blunt end ligation (Sambrook et al., 1989). EFFECTENE transfection (Quiagen) was used to introduce the DNA into the Phoenix cell line as described by manufacturer (e.g., Reimold et al., 2001 Nature. 412:300-7 or Int Immunol. 2001 13:241-8). Viral supernatants were harvested after 48 hours and frozen at −80° C. for later use. B cells were purified from mouse spleens using CD43 depletion or positive selection with B220+ magnetic beads as described by the manufacturer (MidiMacs, Miltenyi Biotech). B cell purity was generally near 95% as confirmed by flow cytometry. The B cells (10^6 cells /ml) were then activated in culture with LPS 10 μg/ml and F (ab′)2 anti-IgM (5 μg/ml Southern Biotechnology Associates Inc.) for 24 hours. The 1 ml of activated B cells (10^6 cells/ml) were mixed with 4 μg of polybrene and 1 ml of virus-containing supernatant and spun at 1000 g for 45 minutes at 24° C. Cells were incubated for 24-36 h at 37° C. and then GFP+ cells were flow sorted and returned to culture with and without stimulation.
In human multiple myeloma cells, XBP-1 was induced by IL-6 treatment and implicated in the proliferation of malignant plasma cells (Wen et al., 1999). However, no role for IL-6 in upregulating XBP-1 transcripts or in mediating splicing of XBP-1 RNA in mature B cells has been described (FIG. 6A). The ability of XBP-1 to induce IL-6 production in wt and XBP-1^−/− primary B cells was tested. As described above, in vitro activated murine splenic B cells were transduced using retroviruses expressing bicistronic mRNA for XBP-1u/s, XBP-1s, XBP-1u and control GFP. After cell sorting, GFP^+ cells were stimulated with LPS and assayed for cytokine production after 72 h. In FIG. 6 panel (A) purified B cells from wt and XBP-1^−/− mice were activated in culture with LPS 10 μg/ml and F(ab′)2 anti-IgM (5 μg/ml ) for 24 hours. Retroviral transduction with GFP alone (GFP-Rv), XBP-1u/s (XBP-1 u/s GFP Rv), XBP-1s (XBP-1s GFP Rv) or XBP-1u (XBP-1u GFP Rv) of activated B cells was performed. Cells were incubated for 24-36 h at 37° C. and then GFP+ cells were flow sorted and then returned to culture with LPS stimulation (10 μg/ml) for 72 h. Cytokine production was analyzed by ELISA from culture supernatants of stimulated B cells. Experiments were done at least three times and standard deviation is shown. In panel (B) Total RNAs were prepared from stimulated B cells above and XBP-1 mRNA levels were determined by Northern blot analysis with γ-actin control

[4] = tested on: XBP-1; assay: XBP-luciferase reporter in NIH3T3 cells; assay type: cell-based; details: in the presence of 5 uM MG-132; with unspliced XBP-1 (41.9 without)
Description: The fold induction of luciferase was measured in NIH3T3 cells bearing XBP-luciferase. The constructs included four copies of the XBP-1 target sequence TGGATGACGTGTACA (SEQ ID NO: 9) fused to the minimal promoter of the mouse RANTES gene (Clauss et al. Nucleic Acids Research 1996. 24:1855) or five copies of the ATF6/XBP-1 target […] (SEQ ID NO: 10) and comprising −53/+45 of the cfos promoter (J. Biol. Chem. 275:27013). In the presence of 5 uM MG-132, the presence of unspliced XBP-1 inhibits the fold induction of luciferase from 41.9 to 5.8. Thus, in the presence of proteasome inhibitors, the unspliced protein blocks the function of the spliced protein.

[5] = tested on: XBP-1^−/− B cells; assay: Ig production by retrovirally transduced XBP-1-/- primary B cells (ELISA); assay type: cell-based, mouse; details: LPS 10 μg/ml 72 h
Description: as §1, §2
The effects of these three different forms of XBP-1 on Ig secretion were compared in wild type and XBP-1^−/− B cells. In vitro activated splenic B cells were transduced using retroviruses expressing bicistronic mRNA encoding XBP-1u/s, XBP-1s, XBP-1u or control GFP. In FIGS. 5(A) and (B) purified B cells from wt and XBP-1^−/− mice were activated in culture with LPS 10 μg/ml and F (ab′)2 anti-IgM (5 μg/ml) for 24 hours. Retroviral transduction with GFP alone (GFP-Rv), XBP-1u/s (XBP-1u/s GFP Rv), XBP-1s (XBP-1s GFP Rv) or XBP-1u (XBP-1u GFP Rv) of activated B cells was performed. Cells were incubated for 24-36 h at 37° C. and then GFP+ cells were flow sorted and then returned to culture with LPS stimulation (10 μg/ml) for 72 h. IgM panel(A) and IgG2b panel (B) production analyzed by ELISA from culture supernatants of stimulated B cells. Experiments were done at least three times and standard deviation is shown.

[6] = tested on: XBP-1s; assay: UPRE-luciferase reporter in NIH3T3 cells; assay type: cell-based
Description: (A) Ubiquitination of XBP-1 in HeLa cells were cotransfected with XBP-1u and His-tagged ubiquitin expression plasmids. (B) Degradation rates of XBP-1u and XBP-1s proteins were determined by pulse labeling J558 cells with ^35S Met/Cys for 1 hr and chasing for the indicated times. (C) Effect of XBP-1u on XBP-1s dependent UPRE activation in PI-treated NIH3T3 cells with 8-fold excess of XBP-1u plasmids. Transfected cells were treated with MG-132 for 16 hrs before harvesting for luciferase assays. Values represent fold induction of activity compared to the reporter alone after normalizing to Renilla. (D) Generation and expression of lysine to arginine XBP-1u mutants. Two or three lysine residues in the C-terminus of XBP-1u were replaced by arginine to generate XBP-1uKK (235, 252) and XBP-1uKKK(146, 235, 252) by site-directed mutagenesis. dn-XBP contains the N-terminal 188 aa of XBP-1u. Western blot analysis was performed with NIH3T3 extracts transfected with the indicated plasmids. E) Inhibition of XBP-1 dependent activation of the UPRE reporter in NIH 3T3 cells by XBP-1u lysine to arginine mutants.
Two or three lysine residues in the C-terminus of XBP-1u were replaced by arginines to generate XBP-1uKK (K235R, K252R) and XBP-1uKKK(K146R, K235R, K252R) by site-directed mutagenesis (Iwakoshi et al.2003 Nature Immunology 4: 321-329). dn-XBP contains the N-terminal 188 aa of XBP-1u. NTH3T3 cells were transfected by using the Lipofectamine2000 reagent as recommended by the manufacturer (Invitrogen, Carlsbad, Calif.) with indicated amount of UPRE (UPR element) reporter (Wang et al. 2000 J Biol Chem 275: 27013-27020) and various effector plasmids. Cells were treated for 16 hours before harvest in certain experiments. Cells were lysed in passive lysis buffer for dual luciferase assays according to the manufacturer's protocol (Promega, Madison, Wis.).

Molecule	Kd [1] [nM]	Kd [2] [nM]	IL-6 amounts expressed [3]	fold induction of luciferase [4]	secretion of IgG2b compared to control cells [5]	secretion of IgM compared to control cells [5]	UPRE reporter activity ([6]; in the absence of treatment)	effect on transactivation of UPRE reporter by XBP-1s ([6]; in the presence of MG-132, 16 hrs, 8-fold excess of XBP-1u plasmid)
IL-6: multi-functional cytokine; mature human IL-6 is a 185 amino acid polypeptide	~0.01	~1						
XBP-1u: murine XBP-1 with point mutations at loop positions −1 and +3; yields only unspliced 33 K protein (protein) MVVVAAAPSAATAAPKVLLLSGQPASGGRALPLMVPGPRAAGSEASGTPQARKRQRLTHLSPEEKALRRKLKNRVAAQTARDRKKARMSELEQQVVDLEEENHKLQLENQLLREKTHGLVVENQELRTRLGMDTLDPDEVPEVEAKGSGVRLVAGSAESAALRLCAPLQQVQAQLSPPQNIFPWTLTLLPLQILSLISFWAFWTSWTLSCFSNVLPQSLLVWRNSQRSTQKDLVPYQPPFLCQWGPHQPSWKPLMNSFVLTMYTPSL			moderate amounts of IL-6	5.8	unable to increase IgG secretion	unable to increase IgM secretion	but not XBP-1u, greatly increased reporter activity	significantly suppressed transactivation of the reporter by XBP-1s

Source: patent US20040170622A1, “Methods and compositions for modulating XBP-1 activity” (President and Fellows of Harvard College, priority 2002, published 2004)
